This passage reports stoichiometry N results from paper PMC5748159.

Read-outs that look alike come from different tables or passages of the source.

Holding throughout (experiment): SEC
For orientation: SEC sorts molecules by how far they enter the pores of the column.

In assay [1] the target is Human S100A7 (psoriasin), reduced, with Cys47 and Cys96 as free thiols (human) (UniProt P31151).
Assay [2] deals with S100A7(C47S)(C96S) homodimer (human) (UniProt P31151).
For assay [3] the target is unchanged. This is another data set of the same source.
For assay [4], the target named is Human S100A7 (psoriasin), oxidized, with Cys47–Cys96 disulfide bond (human) (UniProt P31151).
Assay [5] concerns the target S100A7(C47A)(C96A) homodimer (human) (UniProt P31151).
Assay [6] shares this target. The source holds these as a separate data set.

The stoichiometry N is a count of units in the complex or per binding partner. On to “Human S100A7 (psoriasin), reduced, with Cys47 and Cys96 as free thiols (from UniProt P31151 1-101) (natural protein)”, for which, in assay [1], the stoichiometry N was found to be 2. In the case of “S100A7(C47S)(C96S) homodimer (from UniProt P31151 1-101) (natural protein)”, the stoichiometry N in assay [2] and in assay [3] was 2 in each case. “Human S100A7 (psoriasin), oxidized, with Cys47–Cys96 disulfide bond (from UniProt P31151 1-101) (natural protein)” yielded a stoichiometry N in assay [4] of 2.

Regarding “S100A7(C47A)(C96A) homodimer (from UniProt P31151 1-101) (natural protein)”, the stoichiometry N in assay [5] and in assay [6] was 2 throughout.
